Test results reported in article PMC11026464, “Local environment in biomolecular condensates modulates enzymatic activity across length scales” (Nature Communications, 2024).

Assays:
Dbp1-NOX = test system: T1, Dbp1-NOX; assay: NADH absorbance decrease at […] nm, Michaelis-Menten fit; assay type: biochemical, Thermus thermophilus; conditions: 1 µM enzyme, two-phase micron-sized condensates (apparent, average of dilute and dense phase); 100 µM FAD, O2; 25 mM Tris, 20 mM NaCl, pH 7.5; NADH 50-200 µM
T1 construct: single fusion chain: Dbp1 LCD (1-155) at N-terminus of NOX; E. coli, heat shock and IMAC; dimer 79 kDa; forms condensates/nanoclusters at low salt; with ATP-dependent RNA helicase DBP1 (Saccharomyces cerevisiae)

[1] = biological target: Dbp1-NOX (LCD of Dbp1 from Saccharomyces cerevisiae, residues 1 to 155, fused to the N-terminus of NADH oxidase from Thermus thermophilus) (Saccharomyces cerevisiae | Thermus thermophilus) (UniProt P24784); assay: single-molecule mass photometry; 20 nM protein in low ionic strength buffer (20 mM NaCl), 25 °C, measured over 1 min; Refeyn OneMP
purified protein = substrate: NC(=O)C1=CN([C@@H]2O[C@H](COP(=O)(O)OP(=O)(O)OC[C@H]3O[C@@H](n4cnc5c(N)ncnc54)[C@H](O)[C@@H]3O)[C@@H](O)[C@H]2O)C=CC1; assay: purified protein; assay type: biochemical, Thermus thermophilus; conditions: 1 µM enzyme, homogeneous, 100 µM FAD, O2, 25 mM Tris, 20 mM NaCl, pH 7.5, NADH 50-200 µM
[2] = biological target: the molecule itself; assay: single-molecule mass photometry; 20 nM protein in low ionic strength buffer (20 mM NaCl), 25 °C, measured over 1 min; Refeyn OneMP

Molecule: NC(=O)C1=CN([C@@H]2O[C@H](COP(=O)(O)OP(=O)(O)OC[C@H]3O[C@@H](n4cnc5c(N)ncnc54)[C@H](O)[C@@H]3O)[C@@H](O)[C@H]2O)C=CC1 [NADH]
- Km (Dbp1-NOX): 89 ± 34 µM

Molecule: Dbp1-NOX (LCD of Dbp1 from Saccharomyces cerevisiae, residues 1 to 155, fused to the N-terminus of NADH oxidase from Thermus thermophilus) (from UniProt P24784 1-155) (enzyme)
- stoichiometry N [1]: 2

B1: NADH oxidase from Thermus thermophilus (NOX) (enzyme)
chain: MEATLPVLDAKTAALKRRSIRRYRKDPVPEGLLREILEAALRAPSAWNLQPWRIVVVRDPATKRALREAAFGQAHVEEAPVVLVLYADLEDALAHLDEVIHPGVQGERREAQKQAIQRAFAAMGQEARKAWASGQSYILLGYLLLLLEAYGLGSVPMLGFDPERVRAILGLPSHAAIPALVALGYPAEEGYPSHRLPLERVVLWR
notes: NADH oxidase (NOX) from Thermus thermophilus; codon-optimised gene cloned into pET-15b; Purified by heat shock only, so it is not clear whether a His tag is on this protein; The dimer peak in mass photometry is printed as 45 kDa; also called unconjugated NOX; source: E. coli BL21-GOLD (DE3), purified (heat shock method)
- Km (purified protein): 81 ± 36 µM
- kcat (purified protein): 1.12 ± 0.21 s⁻¹
- stoichiometry N [2]: 2
